Measured values as given in publication PMC3092513 (Enzyme Research, 2011).

Tests used:
[1] = substrate: O=C(O)C(=O)C[C@@H](O)[C@H](O)[C@H](O)COP(=O)(O)O; experiment: purified protein; type: biochemical, Escherichia coli; settings: 25 °C, pH 6.8
[2] = target: the molecule itself; experiment: SEC; Superdex S200 HR 10/300; 10 mM BTP, 10 μM EDTA, 50 mM KCl, pH 6.8; partially purified protein at ≤10 mg/mL; mass estimated from a standard curve of five proteins; dimer of the enzyme
[3] = substrate: O=C(O)C(=O)C[C@@H](O)[C@H](O)[C@H](O)COP(=O)(O)O; experiment: purified protein; type: biochemical, Pyrococcus furiosus; settings: 60 °C, pH 6.8, 50 mM BTP, 10 μM EDTA, 100 μM ZnCl2, 29 μM NAD+, 56 nM enzyme

Protein | Km [1] [µM] | kcat [1] [s⁻¹] | kcat/Km [1] [M⁻¹ s⁻¹] | stoichiometry N [2] | Km [3] [µM] | kcat [3] [s⁻¹] | kcat/Km [3] [M⁻¹ s⁻¹]
EcoDHQS (Escherichia coli K-12) (protein, recombinant, overexpressed in E. coli RB791 from plasmid of J. R. Coggins; ammonium sulfate and anion exchange; no tag mentioned) MERIVVTLGERSYPITIASGLFNEPASFLPLKSGEQVMLVTNETLAPLYLDKVRGVLEQAGVNVDSVILPDGEQYKSLAVLDTVFTALLQKPHGRDTTLVALGGGVVGDLTGFAAASYQRGVRFIQVPTTLLSQVDSSVGGKTAVNHPLGKNMIGAFYQPASVVVDLDCLKTLPPRELASGLAEVIKYGIILDGAFFNWLEENLDALLRLDGPAMAYCIRRCCELKAEVVAADERETGLRALLNLGHTFGHAIEAEMGYGNWLHGEAVAAGMVMAARTSERLGQFSSAETQRIITLLKRAGLPVNGPREMSAQAYLPHMLRDKKVLAGEMRLILPLAIGKSEVRSGVSHELVLNAIADCQSA | 6.3 ± 0.2 | 16 ± 0.2 | 2.5e+06 |  |  |  | 
Pyrococcus furiosus dehydroquinate synthase (enzyme, UniProt Q8U0A8 1-335, looked up) MEGIIFGDLSTLPDLLSSLSPYKVVVLTNTTLKELWLEEVLTWLKEFKPQTIVVPDGEKYKDLDTVRYIWEKLLEMGFTRRSLLIGLGGGVITDIAGFVASTYMRGTYLGLVPTTLLAQVDAAIGGKTGINFYGKNIIGTFYLPKFVLICRDFLKTLPMVEILNGLAEVVKYGILDKEVYNAIKTMNSPREIVEREDIIKKSVAVKLRIVEEDLKENGKRRVLNLGHTVGHAIEKISDYKIKHGFAVSMGLVVEAKIGEILYGFDSGKVVEILTKFGLPVKIPFDPYTTLQAMKIDKKAWYGKIVIVVPVEIGKANIEEVDEKIILQALEEAKNA |  |  |  | 2 | 3.7 ± 0.2 | 3 ± 0.1 | 800000
